The target of this experiment is T148-ADP-ribosylated-actin (100% TccC3-ADP-ribosylated actin) (not stated (purified from rabbit or chicken skeletal muscle)), P68135. To be noted: remark: other sources report otherwise.

B1: Actin-depolymerizing factor, P60981 1-165 (natural protein)
chain: MASGVQVADEVCRIFYDMKVRKCSTPEEIKKRKKAVIFCLSADKKCIIVEEGKEILVGDVGVTITDPFKHFVGMLPEKDCRYALYDASFETKESRKEELMFFLWAPELAPLKSKMIYASSKDAIKKKFQGIKHECQANGPEDLNRACIAEKLGGSLIVAFEGCPV
As to B1, the other was 15 fold.

Values taken from paper PMC9266650.
